In the experiment the target is M2G peptide conjugated with BSA (influenza A virus, A/Puerto Rico/8/34 (H1N1)). Kind of experiment: peptide-BSA ELISA (++ EC50<10^-9M; + 10^-9M<EC50<10^-8M). Background: ELISA stands for enzyme-linked immunosorbent assay.

The EC50 is the concentration needed to bring the measured effect to its halfway point.

With mouse anti-M2 antibody 14C2, the EC50 was under 1 nM.

These data come from patent publication US20090162366A1.
